{"source": "patent US20220025010A1", "about": "(ANTAG THERAPEUTICS, published 2022)", "note": "Where no end group is shown, it is not given here. The star is where a group is joined. C16 diacid = O=C(O)CCCCCCCCCCCCCCC(=O)*", "data": [{"molecular_target": "T1, human GIP receptor (human, UniProt P48546 22-466)", "T1 sequence (looked up)": "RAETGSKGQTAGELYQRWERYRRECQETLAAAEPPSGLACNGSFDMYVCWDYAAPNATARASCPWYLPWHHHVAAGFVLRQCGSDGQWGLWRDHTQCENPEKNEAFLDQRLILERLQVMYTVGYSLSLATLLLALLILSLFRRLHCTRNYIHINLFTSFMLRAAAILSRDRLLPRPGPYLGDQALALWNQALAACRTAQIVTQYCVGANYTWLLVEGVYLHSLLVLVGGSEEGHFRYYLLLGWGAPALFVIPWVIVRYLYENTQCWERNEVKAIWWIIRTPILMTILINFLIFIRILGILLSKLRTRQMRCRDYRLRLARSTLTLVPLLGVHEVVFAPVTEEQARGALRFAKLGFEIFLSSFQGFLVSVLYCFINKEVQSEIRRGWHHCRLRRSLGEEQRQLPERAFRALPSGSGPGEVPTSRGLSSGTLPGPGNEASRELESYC", "experiment": "cell-based or functional assay", "units": {"DiscoveRx cAMP antagonism log IC50": "log M", "CisBio cAMP agonism % Efficacy": "%", "CisBio cAMP antagonism % inhib": "%", "CisBio cAMP antagonism IC50": "nM", "DiscoveRx cAMP antagonism % inhib": "%", "DiscoveRx cAMP antagonism IC50": "nM"}, "values": [{"binder": "SGTFISDYSIAMDRIK(C16 diacid)QQDFVNWLLAQR-NH2 (N-terminus assumed; SMILES CC[C@H](C)[C@H](NC(=O)[C@H](CO)NC(=O)[C@H](Cc1ccc(O)cc1)NC(=O)[C@H](CC(=O)O)NC(=O)[C@H](CO)NC(=O)[C@@H](NC(=O)[C@H](Cc1ccccc1)NC(=O)[C@@H](NC(=O)CNC(=O)[C@@H](N)CO)[C@@H](C)O)[C@@H](C)CC)C(=O)N[C@@H](C)C(=O)N[C@@H](CCSC)C(=O)N[C@@H](CC(=O)O)C(=O)N[C@@H](CCCNC(=N)N)C(=O)N[C@H](C(=O)N[C@@H](CCCCNC(=O)CCCCCCCCCCCCCCC(=O)O)C(=O)N[C@@H](CCC(N)=O)C(=O)N[C@@H](CCC(N)=O)C(=O)N[C@@H](CC(=O)O)C(=O)N[C@@H](Cc1ccccc1)C(=O)N[C@H](C(=O)N[C@@H](CC(N)=O)C(=O)N[C@@H](Cc1c[nH]c2ccccc12)C(=O)N[C@@H](CC(C)C)C(=O)N[C@@H](CC(C)C)C(=O)N[C@@H](C)C(=O)N[C@@H](CCC(N)=O)C(=O)N[C@@H](CCCNC(=N)N)C(N)=O)C(C)C)[C@@H](C)CC)", "note": "[AT498]", "CisBio cAMP antagonism pIC50": 7.9, "DiscoveRx cAMP agonism Emax": 6, "DiscoveRx cAMP antagonism log IC50": -7.7}, {"binder": "PGTFISDYSIAMDRIK(C16 diacid)QQDFVNWLLAQR-NH2 (N-terminus assumed; SMILES CC[C@H](C)[C@H](NC(=O)[C@H](CO)NC(=O)[C@H](Cc1ccc(O)cc1)NC(=O)[C@H](CC(=O)O)NC(=O)[C@H](CO)NC(=O)[C@@H](NC(=O)[C@H](Cc1ccccc1)NC(=O)[C@@H](NC(=O)CNC(=O)[C@@H]1CCCN1)[C@@H](C)O)[C@@H](C)CC)C(=O)N[C@@H](C)C(=O)N[C@@H](CCSC)C(=O)N[C@@H](CC(=O)O)C(=O)N[C@@H](CCCNC(=N)N)C(=O)N[C@H](C(=O)N[C@@H](CCCCNC(=O)CCCCCCCCCCCCCCC(=O)O)C(=O)N[C@@H](CCC(N)=O)C(=O)N[C@@H](CCC(N)=O)C(=O)N[C@@H](CC(=O)O)C(=O)N[C@@H](Cc1ccccc1)C(=O)N[C@H](C(=O)N[C@@H](CC(N)=O)C(=O)N[C@@H](Cc1c[nH]c2ccccc12)C(=O)N[C@@H](CC(C)C)C(=O)N[C@@H](CC(C)C)C(=O)N[C@@H](C)C(=O)N[C@@H](CCC(N)=O)C(=O)N[C@@H](CCCNC(=N)N)C(N)=O)C(C)C)[C@@H](C)CC)", "note": "[AT500]", "CisBio cAMP agonism % Efficacy": 4, "CisBio cAMP antagonism % inhib": 77, "CisBio cAMP antagonism IC50": 66.8, "CisBio cAMP antagonism pIC50": 7.2, "DiscoveRx cAMP antagonism % inhib": 90, "DiscoveRx cAMP antagonism IC50": 29, "DiscoveRx cAMP antagonism log IC50": -7.5}, {"binder": "GGTFISDYSIAMDRIKQQDFVNWLLAQR (HELM PEPTIDE1{G.G.T.F.I.S.D.Y.S.I.A.M.D.R.I.K.Q.Q.D.F.V.N.W.L.L.A.Q.R.[am]}|PEPTIDE2{[O=C(O)CCCCCCCCCCCCCCC(=O)[*:2]].[gGlu]}$PEPTIDE1,PEPTIDE2,16:R3-2:R2$$$V2.0; N-terminus assumed; SMILES CC[C@H](C)[C@H](NC(=O)[C@H](CO)NC(=O)[C@H](Cc1ccc(O)cc1)NC(=O)[C@H](CC(=O)O)NC(=O)[C@H](CO)NC(=O)[C@@H](NC(=O)[C@H](Cc1ccccc1)NC(=O)[C@@H](NC(=O)CNC(=O)CN)[C@@H](C)O)[C@@H](C)CC)C(=O)N[C@@H](C)C(=O)N[C@@H](CCSC)C(=O)N[C@@H](CC(=O)O)C(=O)N[C@@H](CCCNC(=N)N)C(=O)N[C@H](C(=O)N[C@@H](CCCCNC(=O)CC[C@H](NC(=O)CCCCCCCCCCCCCCC(=O)O)C(=O)O)C(=O)N[C@@H](CCC(N)=O)C(=O)N[C@@H](CCC(N)=O)C(=O)N[C@@H](CC(=O)O)C(=O)N[C@@H](Cc1ccccc1)C(=O)N[C@H](C(=O)N[C@@H](CC(N)=O)C(=O)N[C@@H](Cc1c[nH]c2ccccc12)C(=O)N[C@@H](CC(C)C)C(=O)N[C@@H](CC(C)C)C(=O)N[C@@H](C)C(=O)N[C@@H](CCC(N)=O)C(=O)N[C@@H](CCCNC(=N)N)C(N)=O)C(C)C)[C@@H](C)CC)", "note": "[AT502]", "CisBio cAMP agonism % Efficacy": 13, "CisBio cAMP antagonism % inhib": 65, "CisBio cAMP antagonism IC50": 293, "CisBio cAMP antagonism pIC50": 6.5, "DiscoveRx cAMP agonism Emax": 5, "DiscoveRx cAMP antagonism % inhib": 85, "DiscoveRx cAMP antagonism IC50": 52, "DiscoveRx cAMP antagonism log IC50": -7.3}, {"binder": "SGTFISDYSIAMDRIKQQDFVNWLLAQR (HELM PEPTIDE1{S.G.T.F.I.S.D.Y.S.I.A.M.D.R.I.K.Q.Q.D.F.V.N.W.L.L.A.Q.R.[am]}|PEPTIDE2{[O=C(O)CCCCCCCCCCCCCCC(=O)[*:2]].[gGlu]}$PEPTIDE1,PEPTIDE2,16:R3-2:R2$$$V2.0; N-terminus assumed; SMILES CC[C@H](C)[C@H](NC(=O)[C@H](CO)NC(=O)[C@H](Cc1ccc(O)cc1)NC(=O)[C@H](CC(=O)O)NC(=O)[C@H](CO)NC(=O)[C@@H](NC(=O)[C@H](Cc1ccccc1)NC(=O)[C@@H](NC(=O)CNC(=O)[C@@H](N)CO)[C@@H](C)O)[C@@H](C)CC)C(=O)N[C@@H](C)C(=O)N[C@@H](CCSC)C(=O)N[C@@H](CC(=O)O)C(=O)N[C@@H](CCCNC(=N)N)C(=O)N[C@H](C(=O)N[C@@H](CCCCNC(=O)CC[C@H](NC(=O)CCCCCCCCCCCCCCC(=O)O)C(=O)O)C(=O)N[C@@H](CCC(N)=O)C(=O)N[C@@H](CCC(N)=O)C(=O)N[C@@H](CC(=O)O)C(=O)N[C@@H](Cc1ccccc1)C(=O)N[C@H](C(=O)N[C@@H](CC(N)=O)C(=O)N[C@@H](Cc1c[nH]c2ccccc12)C(=O)N[C@@H](CC(C)C)C(=O)N[C@@H](CC(C)C)C(=O)N[C@@H](C)C(=O)N[C@@H](CCC(N)=O)C(=O)N[C@@H](CCCNC(=N)N)C(N)=O)C(C)C)[C@@H](C)CC)", "note": "[AT504]", "CisBio cAMP agonism % Efficacy": 0, "CisBio cAMP antagonism % inhib": 85, "CisBio cAMP antagonism IC50": 39.8, "CisBio cAMP antagonism pIC50": 7.4, "DiscoveRx cAMP antagonism % inhib": 90, "DiscoveRx cAMP antagonism IC50": 21, "DiscoveRx cAMP antagonism log IC50": -7.7}, {"binder": "DYSIAMDKIK(C16 diacid)QQDFVNWLLAQK-NH2 (N-terminus assumed; SMILES CC[C@H](C)[C@H](NC(=O)[C@H](CO)NC(=O)[C@H](Cc1ccc(O)cc1)NC(=O)[C@@H](N)CC(=O)O)C(=O)N[C@@H](C)C(=O)N[C@@H](CCSC)C(=O)N[C@@H](CC(=O)O)C(=O)N[C@@H](CCCCN)C(=O)N[C@H](C(=O)N[C@@H](CCCCNC(=O)CCCCCCCCCCCCCCC(=O)O)C(=O)N[C@@H](CCC(N)=O)C(=O)N[C@@H](CCC(N)=O)C(=O)N[C@@H](CC(=O)O)C(=O)N[C@@H](Cc1ccccc1)C(=O)N[C@H](C(=O)N[C@@H](CC(N)=O)C(=O)N[C@@H](Cc1c[nH]c2ccccc12)C(=O)N[C@@H](CC(C)C)C(=O)N[C@@H](CC(C)C)C(=O)N[C@@H](C)C(=O)N[C@@H](CCC(N)=O)C(=O)N[C@@H](CCCCN)C(N)=O)C(C)C)[C@@H](C)CC)", "note": "[AT356]", "CisBio cAMP agonism % Efficacy": 0}]}]}
